Test results: the supplement of paper PMC9170038

Tested on: MS2 coat protein
Test: apparent KD of MS2 coat protein; designed switch direction (-1 OFF switch, 1 ON switch): -1; higher = weaker reporter binding
Method in brief: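 On Illumina chips, designed RNA switches with common flanks were made by stalled E. coli RNA polymerase. Titrations with SNAP-549-labelled MS2 coat protein, doubling from 0.7 or 1.5 nM to 3 µM, were done with no input, with 200 uM small-molecule ligand, or with an oligonucleotide input. Apparent KD is the median per design over clusters, from curve fits of normalised cluster fluorescence.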

[1] = Eterna round: R95, input ligand: FMN 200 uM
[2] = Eterna round: R95, input ligand: microRNA oligo, concentration not stated
[3] = Eterna round: R95, input ligand: none

## GGUCGGCGAGGAUAUACAUGAGGAUCACCCAUGUGAUAGAGUGCACGAAAACGUGUACGUAGAAGGCGCUGACG [Mat - Exclusion 3 - Mod of JL D96] (puzzle: Exclusion 3)
[1]
  apparent KD of MS2 coat protein: 29.5 nM
[2]
  apparent KD of MS2 coat protein: 11 nM
[3]
  apparent KD of MS2 coat protein: 9.24 nM

## GGUCUACAUGAGGAUCACCCAUGUAAGGAUAUCUACAUUGAAGCUUCGGCUUCAAUGUAGAGAAGGUGCAUAAU [E1/11-B1] (Eterna round: R97, puzzle: Exclusion 1)
Input ligand: FMN 200 uM
  apparent KD of MS2 coat protein: 37.3 nM
Input ligand: none
  apparent KD of MS2 coat protein: 31.4 nM

## GGUGAGCUAGGAUAUGCUUUGGGAAAGCAUUCCUUCGAUAAACUUGAGGAUCACCCAAGUAGAAGGAGCUUGCC [salish99_ex2_r4_019] (Eterna round: R97, puzzle: Exclusion 2)
Input ligand: FMN 200 uM
  apparent KD of MS2 coat protein: 18.7 nM
Input ligand: none
  apparent KD of MS2 coat protein: 11.9 nM

## GGUGCGUAUGUGAGGAUAUGCUGGUCCUUGGAUCGGCAGAAGGCACAUGAGGAUCACCCAUGUGGUGUCGUACU [salish99_Bmod_ex4_082] (puzzle: Brourd's mod of Exclusion 4)
[2]
  apparent KD of MS2 coat protein: 173 nM

## GGUGCGUAUGUGAGGAUAUGCUGGUCCUUGGUUCAGCAGAAGGCACAUGAGGAUCACCCAUGUGGUGUCGUACC [salish99_Bmod_Ex4_025] (puzzle: Brourd's mod of Exclusion 4)
[2]
  apparent KD of MS2 coat protein: 188 nM

## GGUGCGUAUGUUAGGAUAUGCUGGUCCUUGGAUCGGCAGAAGGUACAUGAGGAUCACCCAUGUGGUGUCGUUCC [salish99_Bmod_ex4_103] (puzzle: Brourd's mod of Exclusion 4)
[2]
  apparent KD of MS2 coat protein: 50.8 nM

## GGUGCGUUUGUGAGGAUAUGCUGGUCCUUGGAUCAGCAGAAGGCACAUGAGGAUCACCCAUGUGGUGUCGUACC [salish99_Bmod_Ex4_030] (puzzle: Brourd's mod of Exclusion 4)
[2]
  apparent KD of MS2 coat protein: 273 nM

## GGUGCUGGCGCGUCGGUGUUGGUGCAAUAAGCUUGUGAAACAUGAGGAUCACCCAUGUCCUCAUAAGCUCGUCUUGU [salish99_TOv2_r2_087] (puzzle: Sensor v3, turn-off variant 2)
[1]
  apparent KD of MS2 coat protein: 14.4 nM
[2]
  apparent KD of MS2 coat protein: 283 nM
[3]
  apparent KD of MS2 coat protein: 12.8 nM

## GGUGCUGGCGCGUCGGUGUUGGUGCAAUAAGCUUGUGAAACAUGAGGAUCACCCAUGUCCUCAUAGGCUCGUCUUGU [salish99_TOv2_r2_088] (puzzle: Sensor v3, turn-off variant 2)
[1]
  apparent KD of MS2 coat protein: 16.4 nM
[2]
  apparent KD of MS2 coat protein: 544 nM
[3]
  apparent KD of MS2 coat protein: 14.4 nM

## GGUGGACAUGAGGAUCACCCAUGUGAGGAUAUCGGCCGGUGCGUGGUGGCUGGCGUCUCGAGAAGGCACAUAGU [Exclusion 1 V68] (puzzle: Exclusion 1)
[2]
  apparent KD of MS2 coat protein: 74.9 nM

## GGUGGGCUAGGAUAUGCUUUGGGCAAGCAUUCCUUCGAUAAACUUGAGGAUCACCCAAGUAGAAGGAGCUUGCC [salish99_ex2_r4_026] (Eterna round: R97, puzzle: Exclusion 2)
Input ligand: FMN 200 uM
  apparent KD of MS2 coat protein: 11.5 nM
Input ligand: none
  apparent KD of MS2 coat protein: 10.6 nM

## GGUGUGAGGCAGGAUAUGCAAUAUGUAAGUAAUGCAGAAGGGUCUACAUGAGGAUCACCCAUGUGUGCGGUAGA [Ex6 #3] (Eterna round: R97, puzzle: Exclusion 6)
Input ligand: FMN 200 uM
  apparent KD of MS2 coat protein: 251 nM
Input ligand: none
  apparent KD of MS2 coat protein: 140 nM

## GGUUAACAUGAGGAUCACCCAUGUGAGGAUAUGUUCAGGAUGAUAAAUAGAAGAGAUAAUAGAAGGCACUUUGG [Bubbles5] (Eterna round: R97, puzzle: Exclusion 1)
Input ligand: FMN 200 uM
  apparent KD of MS2 coat protein: 57.6 nM
Input ligand: none
  apparent KD of MS2 coat protein: 39.9 nM

## GGUUGACAUGAGGAUCACCCAUGUGAGGAUAUGCGAGAGAAAAAAGUGAGGAAGAAAAGUAGAAGGCGCUGACG [salish99-ex1_r3_001] (puzzle: Exclusion 1)
[1]
  apparent KD of MS2 coat protein: 59.9 nM
[2]
  apparent KD of MS2 coat protein: 49 nM
[3]
  apparent KD of MS2 coat protein: 57.1 nM

## GGUUGACAUGAGGAUCACCCAUGUGAGGAUAUGCGAGAGAAAAAAGUGAGGAAGGAAUGCAGAAGGCGCUGUCG [salish99-ex1_r3_018] (puzzle: Exclusion 1)
[1]
  apparent KD of MS2 coat protein: 43.3 nM
[2]
  apparent KD of MS2 coat protein: 54.3 nM
[3]
  apparent KD of MS2 coat protein: 57.7 nM

## GGUUGGCGAGGAUAUACAUGAGGAUCACCCAUGUGAGAGAAAAAAGUGAGGAAGAAAAGUAGAAGGCGCUGACC [salish99_ex3_r3_048] (puzzle: Exclusion 3)
[1]
  apparent KD of MS2 coat protein: 256 nM
[2]
  apparent KD of MS2 coat protein: 44.6 nM
[3]
  apparent KD of MS2 coat protein: 53.9 nM

## GGUUGGCGAGGAUAUACAUGAGGAUCACCCAUGUGAGAGAAAAAAGUGAGGAAGAAAAGUAGAAGGCGUUGACG [salish99_ex3_r3_052] (puzzle: Exclusion 3)
[1]
  apparent KD of MS2 coat protein: 66.2 nM
[2]
  apparent KD of MS2 coat protein: 48.3 nM
[3]
  apparent KD of MS2 coat protein: 42.8 nM

## GGUUGGCGAGGAUAUACAUGAGGAUCACCCAUGUGGUCCUGUAAAAAAAAAAACCUUUGUAGAAGGCGCGGGUC [salish99_ex3_r4_034] (Eterna round: R97, puzzle: Exclusion 3)
Input ligand: FMN 200 uM
  apparent KD of MS2 coat protein: 211 nM
Input ligand: none
  apparent KD of MS2 coat protein: 233 nM
